The values that follow come from PMC11383374.

The test addresses the protein biologic (purified DNASE1-Fc enzyme biologic analysed by size-exclusion chromatography with light scattering) (not stated (murine and human isoforms were made)) (UniProt P49183). Briefly: SEC-MALS; size-exclusion chromatography with light scattering; two separate concentrations of sample loading; single peak; hydrodynamic radius 5.3 nm. Background: In gel filtration, larger molecules generally elute earlier.

As for “the protein biologic (purified DNASE1-Fc enzyme biologic analysed by size-exclusion chromatography with light scattering) (from UniProt P49183 23-284) (Fc fusion)”, the stoichiometry N (usually the number of molecules, sites or subunits per partner or assembly) came out at 2.
